Reference: patent US20140134737, “Alternative Splicing Modulators and Splice Variants and Their Use in the Control and Detection of Pluripotency and Differentiation” (Governing Council of the University of Toronto, published 2014)

Key:
Conditions in all cases: tags: GST fusion; label: radiolabeled
[1] = biological target: T1, FOXP1 forkhead domain (canonical, exon 18) (Homo sapiens, UniProt Q9H334 SEQ:465-555); assay: EMSA; no appreciable shift
T1 sequence: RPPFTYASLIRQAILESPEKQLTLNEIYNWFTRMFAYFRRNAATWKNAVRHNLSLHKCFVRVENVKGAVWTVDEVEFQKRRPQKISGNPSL
Description: (§1) Radiolabeled dsDNA probes containing two copies of each 8-mer (top panels), or two copies of mutant versions of these sequences CCACTCAA, ATGCAGGA, CTATCCAA and AACCCCAA (bottom panels) were incubated in the absence (lanes 1, 10, 19 and 28) or in the presence of increasing amounts (0.2 to 3.2 pmol) of recombinant GST-FOXP1 or GST-FOXP1-ES proteins. Positions mutated in the probe sequences are underlined. Shifted protein-dsDNA complexes are indicated by arrows and free dsDNA probe is indicated by an asterisk.

[2] = biological target: T2, FOXP1-ES forkhead domain (exon 18b) (Homo sapiens); assay: EMSA; no appreciable shift
T2 chain: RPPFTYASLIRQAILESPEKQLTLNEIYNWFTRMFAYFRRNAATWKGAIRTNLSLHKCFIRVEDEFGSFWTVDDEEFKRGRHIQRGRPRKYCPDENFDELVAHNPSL
Description: as §1

[3] = biological target: T1, FOXP1 forkhead domain (canonical, exon …); assay: EMSA; no appreciable shift; remark: listed apart in the source
Description: (§2) FIG. 2(C) is an Electrophoresis Mobility Shift Assay (EMSA) validating PBM-derived consensus DNA binding sites for FOXP1 and FOXP1-ES. Radiolabeled dsDNA probes containing two copies of GTAAACAA (top left panel), AATAAACA (top middle panel) or CGATACAA (top right panel), or two copies of mutant versions of these sequences GGACACAA (bottom left panel), AATGGACA (bottom middle panel) or CGCGACAT (bottom right panel) were incubated in the absence (lanes 1, 9 and 19) or in the presence of increasing amounts (0.2 to 3.2 pmol) of recombinant GST-FOXP1 or GST-FOXP1-ES proteins. Positions mutated in the probe sequences are underlined. Shifted protein-dsDNA complexes are indicated by arrows and free dsDNA probe is indicated by an asterisk.

[4] = biological target: T2, FOXP1-ES forkhead domain (exon 18b); assay: EMSA; no appreciable shift
Description: as §2

[5] = biological target: T2, FOXP1-ES forkhead domain (exon 18b); assay: EMSA; preferentially bound by FOXP1-ES
Description: as §2

B1: ATGCAGGA x2 mutant (dsDNA)
DNA 1: ATGCAGGACCATGCAGGA
DNA 2: TCCTGCATGGTCCTGCAT
binding result [1]: no binding | binding result [2]: no binding

B2: CGCGACAT x2 mutant (dsDNA)
DNA 1: CGCGACATCCCGCGACAT
DNA 2: ATGTCGCGGGATGTCGCG
binding result [3]: no binding | binding result [4]: no binding

B3: CCACTCAA x2 mutant (dsDNA)
DNA 1: CCACTCAACCCCACTCAA
DNA 2: TTGAGTGGGGTTGAGTGG
binding result [1]: no binding | binding result [2]: no binding

B4: GGACACAA x2 mutant (dsDNA)
DNA 1: GGACACAACCGGACACAA
DNA 2: TTGTGTCCGGTTGTGTCC
binding result [3]: no binding | binding result [4]: no binding

B5: AACCCCAA x2 mutant (dsDNA)
DNA 1: AACCCCAACCAACCCCAA
DNA 2: TTGGGGTTGGTTGGGGTT
binding result [1]: no binding | binding result [2]: no binding

B6: AATAAACA x2 probe (dsDNA)
DNA 1: AATAAACACCAATAAACA
DNA 2: TGTTTATTGGTGTTTATT
binding result [5]: binds

B7: AATGGACA x2 mutant (dsDNA)
DNA 1: AATGGACACCAATGGACA
DNA 2: TGTCCATTGGTGTCCATT
binding result [3]: no binding | binding result [4]: no binding

B8: CTATCCAA x2 mutant (dsDNA)
DNA 1: CTATCCAACCCTATCCAA
DNA 2: TTGGATAGGGTTGGATAG
binding result [1]: no binding | binding result [2]: no binding
